In the supplement of paper PMC12042874:
± gives the uncertainty stated by the source.

assay: amyloid nucleation score (Sup35N fusion, yeast selection) (log enrichment); library NNK1; higher = more nucleation; inactive = no reads after selection
Method in brief: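 Random libraries were run with three technical output replicates. In each, psi-negative yeast expressing Sup35N fused to peptides of 20 random codons were induced 24 hours with 100 μM copper sulfate and grown 7 days at 30°C on medium lacking adenine and uracil, and input and output plasmid inserts were Illumina-sequenced. The nucleation score is the DiMSum log enrichment of output over input reads, centred on the mode score of non-aggregating sequences, and sequences under 100 input reads were excluded.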

WFTDLRNRGVVNTYTPIV and SDPCKCTYCSYLSLDITLYA are within error of each other in amyloid nucleation score: -0.131 ± 0.29 for the first, 0.05 ± 0.23 for the second.

YRDFGGN and SCVYNWFIKVLPKVSTMSGD are within error of each other in amyloid nucleation score: 0.076 ± 0.24 for the first, 0.41 ± 0.52 for the second.

Going from NLFLMLVDLVSLGTTI to GTCPSRPVSV, the amyloid nucleation score falls from 2.08 ± 0.51 to -0.139 ± 0.47.

RYCYRGHMFLFQTSLFKCSS and WCSTQLVRKIKVFEKSERGV are within error of each other in amyloid nucleation score: -0.354 ± 0.83 for the first, -1.07 ± 2.1 for the second.

RAVGSDWGKVVFLLMNSEES and LTITGSFIHPI are within error of each other in amyloid nucleation score: 0.212 ± 0.31 for the first, -0.739 ± 0.79 for the second.

GATTMFEVGICNENRKVYVE and MVTDPWISTLSSFHLWGGFM are within error of each other in amyloid nucleation score: -0.179 ± 0.29 for the first, -0.318 ± 0.93 for the second.

HPVIADDLSYAAVIKRYLGV and PFVGTIFVSGSGTSMENGIC are within error of each other in amyloid nucleation score: 0.267 ± 0.41 for the first, -0.601 ± 0.47 for the second.

GQYVWADLINVVRLWVFVSR and AASRLVRDDWTLISGHPSKA are within error of each other in amyloid nucleation score: 0.503 ± 0.87 for the first, 0.844 ± 0.73 for the second.

WFVNIEGREEWKYHKGCEPK and RDIRWITQEADGYLELRHSF are within error of each other in amyloid nucleation score: 0.758 ± 0.49 for the first, -0.085 ± 0.73 for the second.

LYSKLSALEFMQLAIQSHLD and NLIWMVKYCYIIFRIPTTCL are within error of each other in amyloid nucleation score: 1.96 ± 0.15 for the first, 1.77 ± 0.42 for the second.

VSFNCTNGFRIKHVLWSTDN and VFGDT are within error of each other in amyloid nucleation score: 1.09 ± 0.17 for the first, 0.149 ± 0.97 for the second.

YLRLKKMSVGVWGVIDRCLV and ELTYFGNI are within error of each other in amyloid nucleation score: 0.995 ± 0.51 for the first, 1.5 ± 0.24 for the second.

Compared with FCMVDYWVLVPCDEIGTDVV, GTLVLYFCGVC is higher in amyloid nucleation score: 0.116 ± 0.46 for the first, 6.62 ± 0.059 for the second.

Compared with VRFSLHDRGRQTRTCYSPWA, TNSFYYGSVSTCYSRCNCKF is higher in amyloid nucleation score: 0.006 ± 0.36 for the first, 7.362 ± 0.048 for the second.

Going from GVDHIGLGTEEYNQSYLGSG to VPYVISINSMVWVGHRPVLP, the amyloid nucleation score rises from -0.505 ± 0.53 to 6.132 ± 0.057.

Going from FVAGDSLTHARKYAVQRL to YYGYVLFQGFSM, the amyloid nucleation score rises from -1.08 ± 0.59 to 1.82 ± 0.19.

Compared with RSIPSMEVSVMK, FFLILRVRLYCTSICQAYAN is higher in amyloid nucleation score: -0.805 ± 0.73 for the first, 0.451 ± 0.48 for the second.

First: CYAFLDWAYVSEG
Second: HFCKYSQNIELRQALGCYFW
The amyloid nucleation score of the first is lower: 0.114 ± 0.28 for the first, 6.16 ± 0.065 for the second.

LIGHRSRS and AGPDSSGAGGGSARFLFPEL are within error of each other in amyloid nucleation score: -1.57 ± 1.1 for the first, 0.184 ± 1.2 for the second.

ICTFVMKLTAFVIIVLVFFH and IRSQKCCFLHRWFLACFRII are within error of each other in amyloid nucleation score: -0.125 ± 0.26 for the first, -0.624 ± 1.1 for the second.

First: FCKCNQVFISCLCGSTKHTG
Second: VINRSQIRGHRAFSWVGPSL
The amyloid nucleation score of the first is higher: 3.59 ± 0.1 for the first, 0.53 ± 0.38 for the second.

Compared with WLETRP, FVSNYYYV is higher in amyloid nucleation score: -0.226 ± 0.33 for the first, 1.95 ± 0.17 for the second.

Compared with LRFVVFASTIGRGIGST, LGESREVSGHDNRCWAFQ is higher in amyloid nucleation score: -0.892 ± 0.48 for the first, 0.594 ± 0.49 for the second.

First: SFVFGHIVKK
Second: GFFVNNCLFSILLDFWVSEE
The amyloid nucleation score of the first is higher: 2.72 ± 0.086 for the first, 1.24 ± 0.26 for the second.

Compared with CVMNLYGGMPHAGRWTGF, GGELMAFTA is lower in amyloid nucleation score: 4.33 ± 0.11 for the first, 0.553 ± 0.49 for the second.

YREEEILRVVNLTIFAGPGM and SDRKEA are within error of each other in amyloid nucleation score: -0.55 ± 0.39 for the first, -0.444 ± 0.69 for the second.

DWMLISE and STNFLWTTFGFFHVCLDGAM are within error of each other in amyloid nucleation score: -0.084 ± 0.28 for the first, -0.218 ± 0.92 for the second.

First: YRDTVGVYYRFIRGYWMCTW
Second: SGGPWVNCNFNT
The amyloid nucleation score of the first is lower: -0.396 ± 0.42 for the first, 0.494 ± 0.47 for the second.

FMSEDESYVCYRWGWYDRIF and MWSGDDCSFNDFCYVCDFCK are within error of each other in amyloid nucleation score: -0.919 ± 1 for the first, -0.1 ± 0.32 for the second.

IVAVDFGLFRMRTIPRAAVS and RMVIMLMGTHDRPFWGITGS are within error of each other in amyloid nucleation score: -0.144 ± 1.6 for the first, 0.925 ± 0.63 for the second.

LLLDLILY and GVRYQALFLSAVL are within error of each other in amyloid nucleation score: -0.505 ± 0.72 for the first, 0.09 ± 0.21 for the second.

Going from MSKINFFVNMAGL to VSKDSSIQRGSRQFCYLAYS, the amyloid nucleation score falls from 5.19 ± 0.062 to 1.08 ± 0.61.

GYIYLFGARFVVEEFGIVFW and EVENRFVCGNSDLSGNDANK are within error of each other in amyloid nucleation score: 0.678 ± 0.93 for the first, -0.489 ± 0.75 for the second.

Compared with FPGSRDPGVNRSWSYNSIDT, KHYIKRASDGHAFSYVHLSL is lower in amyloid nucleation score: 1.87 ± 0.14 for the first, 0.068 ± 0.38 for the second.

Going from KVSVRYSNYSCVYFVYCRW to SPHTI, the amyloid nucleation score rises from 0.279 ± 0.27 to 4.92 ± 0.097.

IRSAN and LAIDNDSWFVETNYNFKFDV are within error of each other in amyloid nucleation score: 0.918 ± 1.1 for the first, -0.438 ± 0.57 for the second.

FCYIDMEFSFCLLSAEFISV and KVVSGA are within error of each other in amyloid nucleation score: 0.03 ± 0.53 for the first, 0.879 ± 0.53 for the second.

WDTPFFCPSRNFRRATGPYP and ATMYICTRHSTAYGVFHSFV are within error of each other in amyloid nucleation score: 0.983 ± 0.53 for the first, 0.105 ± 1.2 for the second.

EGGRFKHRMNSCHYNSFGLH and TNSFSVGCVRIP are within error of each other in amyloid nucleation score: -0.255 ± 0.76 for the first, 0.657 ± 0.68 for the second.

Compared with LWLRGLVSFRQSHGRTGKSS, NNKGSLSPGNLDTSDESEFS is higher in amyloid nucleation score: -0.126 ± 0.33 for the first, 0.652 ± 0.29 for the second.

With FLTFKMN the amyloid nucleation score was “inactive”.
For FHIRWE, the amyloid nucleation score was “inactive”.
In the case of GRMNKNYA, the amyloid nucleation score is reported as “inactive”.
In the case of FCMWKGAFDRDYVGNGVAGS, the amyloid nucleation score is reported as “inactive”.
With EAPYISFVLIG the amyloid nucleation score was “inactive”.
For CDGDASAYDTRGTALSA, the amyloid nucleation score was “inactive”.
